Test results published in PMC7794802, “The Interactome of Cancer-Related Lysyl Oxidase and Lysyl Oxidase-Like Proteins” (Cancers, 2020).

Assays:
[1] = target: human α5β1 integrin, full-length (Millipore CC1027) (human) (UniProt P08648); experiment: BLI; inhibition: α5β1 integrin at 35.5 µg/mL preincubated one hour at room temperature with or without RGD peptide at 50 µg/mL, then LOXL2-coated AR2G sensor dipped in it; same buffer as the kinetics
SPARC = target: T1, SPARC (UniProt P09486 18-303); experiment: SPR; BIAcore T100; ligands covalently immobilised by amine coupling on CM5 or CM3 (collagen XVII) sensor chips; LOXL2, SRCR 1-2 and SRCR 1-4 injected in 10 mM Hepes pH 7.4, 150 mM NaCl, 0.05% P20
T1 construct: SPARC; also called immobilized SPARC
T1 sequence (looked up): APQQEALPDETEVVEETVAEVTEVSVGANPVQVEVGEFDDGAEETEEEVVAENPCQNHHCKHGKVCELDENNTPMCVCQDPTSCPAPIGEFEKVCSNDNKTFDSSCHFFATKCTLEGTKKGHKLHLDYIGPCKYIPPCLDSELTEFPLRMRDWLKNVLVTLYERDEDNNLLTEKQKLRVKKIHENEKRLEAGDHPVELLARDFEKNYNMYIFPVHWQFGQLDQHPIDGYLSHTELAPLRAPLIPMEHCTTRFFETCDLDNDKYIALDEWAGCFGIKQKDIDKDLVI

[2] = target: T2, human α5β1 integrin, full-length (Millipore CC1027) (human, UniProt P08648 42-1049; P05556 21-798); experiment: SPR; SPR imaging, BIAcore Flexchip; α5β1 integrin (29.3 µg/mL) as analyte recirculated over ECM arrays including spotted LOXL2; 10 mM Hepes pH 7.4, 150 mM NaCl, 50 mM β-octyl-D-glucopyranoside, 2 mM MgCl2, 2 mM MnCl2; conditions: both partners purified
T2 construct: integrin alpha-5 subunit of human α5β1 integrin; integrin beta-1 subunit of human α5β1 integrin; Used in buffer with 50 mM β-octyl-D-glucopyranoside, MgCl2 and MnCl2; The source is told for the BLI assays only; also called full-length α5β1 integrin; source: bought: Millipore, Merck, CC1027

[3] = target: T2, human α5β1 integrin, full-length …; experiment: BLI; inhibition: α5β1 integrin at 35.5 µg/mL preincubated one hour at room temperature with or without RGD peptide at 50 µg/mL, then LOXL2-coated AR2G sensor dipped in it; same buffer as the kinetics; conditions: both partners purified

T2 sequence (P08648 42-1049, chain 1 of 2): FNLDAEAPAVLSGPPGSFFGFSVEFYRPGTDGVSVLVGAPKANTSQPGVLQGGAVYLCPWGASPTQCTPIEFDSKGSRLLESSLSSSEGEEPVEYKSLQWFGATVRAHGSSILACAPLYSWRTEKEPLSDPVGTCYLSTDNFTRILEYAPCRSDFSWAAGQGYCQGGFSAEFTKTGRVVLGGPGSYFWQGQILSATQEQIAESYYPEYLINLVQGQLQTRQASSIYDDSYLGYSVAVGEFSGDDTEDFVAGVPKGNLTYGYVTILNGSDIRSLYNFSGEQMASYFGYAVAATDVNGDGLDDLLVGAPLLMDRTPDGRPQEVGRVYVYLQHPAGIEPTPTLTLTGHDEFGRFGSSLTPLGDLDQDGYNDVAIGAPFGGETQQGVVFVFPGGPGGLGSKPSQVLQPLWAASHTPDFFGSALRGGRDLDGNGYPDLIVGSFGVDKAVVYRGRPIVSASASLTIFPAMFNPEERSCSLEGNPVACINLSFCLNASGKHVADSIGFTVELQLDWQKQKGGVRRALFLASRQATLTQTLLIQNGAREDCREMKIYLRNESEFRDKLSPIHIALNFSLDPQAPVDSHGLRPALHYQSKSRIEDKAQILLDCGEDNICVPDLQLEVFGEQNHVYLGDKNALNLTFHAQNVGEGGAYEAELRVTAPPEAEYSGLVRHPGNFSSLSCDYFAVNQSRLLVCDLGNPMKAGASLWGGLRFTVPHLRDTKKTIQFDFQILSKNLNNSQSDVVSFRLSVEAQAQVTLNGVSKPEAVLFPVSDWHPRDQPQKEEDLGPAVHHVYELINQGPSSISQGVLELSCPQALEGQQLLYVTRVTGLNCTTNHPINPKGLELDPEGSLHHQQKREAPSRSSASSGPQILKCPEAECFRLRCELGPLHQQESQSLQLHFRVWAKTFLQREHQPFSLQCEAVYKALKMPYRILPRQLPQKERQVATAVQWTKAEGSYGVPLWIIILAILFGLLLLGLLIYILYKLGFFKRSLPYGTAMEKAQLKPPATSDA
T2 sequence (P05556 21-798, chain 2 of 2): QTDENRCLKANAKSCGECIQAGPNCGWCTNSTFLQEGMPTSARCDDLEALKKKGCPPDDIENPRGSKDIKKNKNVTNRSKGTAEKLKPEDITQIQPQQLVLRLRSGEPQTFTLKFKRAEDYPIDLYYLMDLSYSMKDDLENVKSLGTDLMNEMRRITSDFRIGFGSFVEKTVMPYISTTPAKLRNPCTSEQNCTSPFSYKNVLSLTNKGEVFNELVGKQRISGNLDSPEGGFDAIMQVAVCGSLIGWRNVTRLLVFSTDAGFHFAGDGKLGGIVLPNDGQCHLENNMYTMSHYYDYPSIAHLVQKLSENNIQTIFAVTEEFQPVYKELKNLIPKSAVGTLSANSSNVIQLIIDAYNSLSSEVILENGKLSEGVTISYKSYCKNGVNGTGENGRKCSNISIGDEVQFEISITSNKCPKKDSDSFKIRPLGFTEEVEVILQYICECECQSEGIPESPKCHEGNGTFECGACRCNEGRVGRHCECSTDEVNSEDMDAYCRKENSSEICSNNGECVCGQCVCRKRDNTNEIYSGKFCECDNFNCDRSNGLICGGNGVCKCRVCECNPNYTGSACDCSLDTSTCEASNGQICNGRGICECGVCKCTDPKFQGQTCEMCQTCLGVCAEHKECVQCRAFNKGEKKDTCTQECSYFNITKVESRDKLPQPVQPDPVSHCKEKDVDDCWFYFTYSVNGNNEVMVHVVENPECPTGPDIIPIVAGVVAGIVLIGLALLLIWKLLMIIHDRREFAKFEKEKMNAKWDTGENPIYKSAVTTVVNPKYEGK
Sequence of human α5β1 integrin, full-length (Millipore CC1027) (human) (P08648 42-1049, chain 1 of 2): as the sequence (P08648 42-1049, chain 1 of 2) above
Sequence of human α5β1 integrin, full-length (Millipore CC1027) (human) (P05556 21-798, chain 2 of 2, further chain): as the sequence (P05556 21-798, chain 2 of 2) above

Molecule: RGD peptide (Sigma-Aldrich, A8052)
- percent decrease of the binding of α5β1 integrin to LOXL2 [1]: 24.9%

B1: lysyl oxidase-like 2 (LOXL2), full-length recombinant protein (enzyme, UniProt Q9Y4K0 26-774, looked up)
chain: QYDSWPHYPEYFQQPAPEYHQPQAPANVAKIQLRLAGQKRKHSEGRVEVYYDGQWGTVCDDDFSIHAAHVVCRELGYVEAKSWTASSSYGKGEGPIWLDNLHCTGNEATLAACTSNGWGVTDCKHTEDVGVVCSDKRIPGFKFDNSLINQIENLNIQVEDIRIRAILSTYRKRTPVMEGYVEVKEGKTWKQICDKHWTAKNSRVVCGMFGFPGERTYNTKVYKMFASRRKQRYWPFSMDCTGTEAHISSCKLGPQVSLDPMKNVTCENGLPAVVSCVPGQVFSPDGPSRFRKAYKPEQPLVRLRGGAYIGEGRVEVLKNGEWGTVCDDKWDLVSASVVCRELGFGSAKEAVTGSRLGQGIGPIHLNEIQCTGNEKSIIDCKFNAESQGCNHEEDAGVRCNTPAMGLQKKLRLNGGRNPYEGRVEVLVERNGSLVWGMVCGQNWGIVEAMVVCRQLGLGFASNAFQETWYWHGDVNSNKVVMSGVKCSGTELSLAHCRHDGEDVACPQGGVQYGAGVACSETAPDLVLNAEMVQQTTYLEDRPMFMLQCAMEENCLSASAAQTDPTTGYRRLLRFSSQIHNNGQSDFRPKNGRHAWIWHDCHRHYHSMEVFTHYDLLNLNGTKVAEGHKASFCLEDTECEGDIQKNYECANFGDQGITMGCWDMYRHDIDCQWVDITDVPPGDYLFQVVINPNFEVAESDYSNNIMKCRSRYDGHRIWMYNCHIGGSFSEETEKKFEHFSGLLNNQLSPQ
notes: lysyl oxidase-like 2 (LOXL2), full-length recombinant protein made in the laboratory; As a secreted recombinant protein it probably lacks its signal peptide (surmise); also called full-length LOXL2; soluble LOXL2; source: expressed as recombinant protein as previously described [62]
- KD1 (site 1, heterogeneous ligand model) (SPARC): 37.8 nM
- KD2 (site 2, heterogeneous ligand model) (SPARC): 41.5 nM
- ka1 (site 1, heterogeneous ligand model) (SPARC): 186000 M⁻¹ s⁻¹
- ka2 (site 2, heterogeneous ligand model) (SPARC): 167000 M⁻¹ s⁻¹
- kd1 (site 1, heterogeneous ligand model) (SPARC): 0.00622 s⁻¹
- kd2 (site 2, heterogeneous ligand model) (SPARC): 0.00769 s⁻¹
- binding result [2]: binds

B2: Recombinant human LOXL2 (R&D Systems, 2639-AO) (enzyme, UniProt Q9Y4K0 26-774, looked up)
chain: QYDSWPHYPEYFQQPAPEYHQPQAPANVAKIQLRLAGQKRKHSEGRVEVYYDGQWGTVCDDDFSIHAAHVVCRELGYVEAKSWTASSSYGKGEGPIWLDNLHCTGNEATLAACTSNGWGVTDCKHTEDVGVVCSDKRIPGFKFDNSLINQIENLNIQVEDIRIRAILSTYRKRTPVMEGYVEVKEGKTWKQICDKHWTAKNSRVVCGMFGFPGERTYNTKVYKMFASRRKQRYWPFSMDCTGTEAHISSCKLGPQVSLDPMKNVTCENGLPAVVSCVPGQVFSPDGPSRFRKAYKPEQPLVRLRGGAYIGEGRVEVLKNGEWGTVCDDKWDLVSASVVCRELGFGSAKEAVTGSRLGQGIGPIHLNEIQCTGNEKSIIDCKFNAESQGCNHEEDAGVRCNTPAMGLQKKLRLNGGRNPYEGRVEVLVERNGSLVWGMVCGQNWGIVEAMVVCRQLGLGFASNAFQETWYWHGDVNSNKVVMSGVKCSGTELSLAHCRHDGEDVACPQGGVQYGAGVACSETAPDLVLNAEMVQQTTYLEDRPMFMLQCAMEENCLSASAAQTDPTTGYRRLLRFSSQIHNNGQSDFRPKNGRHAWIWHDCHRHYHSMEVFTHYDLLNLNGTKVAEGHKASFCLEDTECEGDIQKNYECANFGDQGITMGCWDMYRHDIDCQWVDITDVPPGDYLFQVVINPNFEVAESDYSNNIMKCRSRYDGHRIWMYNCHIGGSFSEETEKKFEHFSGLLNNQLSPQ
notes: recombinant human lysyl oxidase-like 2 (LOXL2), commercial protein; also called immobilized LOXL2; source: bought: R&D Systems, BioTechne, 2639-AO
- binding result [3]: binds

B3: LOXL2 N-terminal scavenger receptor cysteine-rich domains SRCR 1-2 (residues 58-302) (domain or fragment, UniProt Q9Y4K0 58-302, looked up)
chain: LRLAGQKRKHSEGRVEVYYDGQWGTVCDDDFSIHAAHVVCRELGYVEAKSWTASSSYGKGEGPIWLDNLHCTGNEATLAACTSNGWGVTDCKHTEDVGVVCSDKRIPGFKFDNSLINQIENLNIQVEDIRIRAILSTYRKRTPVMEGYVEVKEGKTWKQICDKHWTAKNSRVVCGMFGFPGERTYNTKVYKMFASRRKQRYWPFSMDCTGTEAHISSCKLGPQVSLDPMKNVTCENGLPAVVSCV
notes: LOXL2, SRCR domains 1-2, residues 58-302; also called SRCR 1-2 domain; source: expressed as recombinant protein as previously described [62]
- Kd (SPARC; both partners purified): 21.4 nM
